Among the data in publication PMC2839090 are Kd values, retold here.

The term Kd denotes a measure of binding affinity in units of concentration.

The experiment addresses GST fused with the C-terminal variable region of LigB (LigBCtv; amino acids 1418-1889) (Leptospira interrogans serovar Pomona). In words: ITC.

Regarding “Human plasma fibronectin (natural protein)”, the Kd came to 8.55 µM.
